The target of this assay is T1, GST-RsiV^59–285 (B. subtilis, UniProt O05403 59-285).
T1 construct: plasmid pKBW204 (pDEST15); source: E. coli BL21(DE3), purified (Glutathione HiCap Matrix); not shown: GST, N-terminal, kept
T1 sequence (looked up): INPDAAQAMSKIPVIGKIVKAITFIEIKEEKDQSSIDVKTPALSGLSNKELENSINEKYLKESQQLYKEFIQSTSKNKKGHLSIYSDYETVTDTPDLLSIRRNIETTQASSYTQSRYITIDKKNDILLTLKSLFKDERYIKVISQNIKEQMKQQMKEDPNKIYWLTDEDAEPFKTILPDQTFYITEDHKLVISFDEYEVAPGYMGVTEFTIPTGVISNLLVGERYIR
Description: pull-down; 2 mg purified GST-RsiV^59–285 on a Glutathione HiCap Matrix column in PBS-EW; 2 mg of HEW lysozyme, human lysozyme or mutanolysin applied; washed with PBS-EW, eluted with TNGT; SDS-PAGE. The note with it: both partners purified.

Data on 1 molecule can be found in publication PMC4183432, “Evidence of a Bacterial Receptor for Lysozyme: Binding of Lysozyme to the Anti-σ Factor RsiV Controls Activation of the ECF σ Factor σ^V” (PLoS Genetics, 2014).

B1: human lysozyme (enzyme, UniProt P61626 19-148, looked up)
chain: KVFERCELARTLKRLGMDGYRGISLANWMCLAKWESGYNTRATNYNAGDRSTDYGIFQINSRYWCNDGKTPGAVNACHLSCSALLQDNIADAVACAKRVVRDPQGIRAWVAWRNRCQNRDVRQYVQGCGV
notes: Human lysozyme, a C-type lysozyme (58% identity to HEW lysozyme); also called HUM lysozyme
On to B1, for which the binding result is listed as “binds”.
